Assay results taken from patent publication US10829540 (AstraZeneca / MedImmune, dated 2020).

T1: human P2X4 (human, UniProt Q99571 1-388)
T1 sequence (looked up): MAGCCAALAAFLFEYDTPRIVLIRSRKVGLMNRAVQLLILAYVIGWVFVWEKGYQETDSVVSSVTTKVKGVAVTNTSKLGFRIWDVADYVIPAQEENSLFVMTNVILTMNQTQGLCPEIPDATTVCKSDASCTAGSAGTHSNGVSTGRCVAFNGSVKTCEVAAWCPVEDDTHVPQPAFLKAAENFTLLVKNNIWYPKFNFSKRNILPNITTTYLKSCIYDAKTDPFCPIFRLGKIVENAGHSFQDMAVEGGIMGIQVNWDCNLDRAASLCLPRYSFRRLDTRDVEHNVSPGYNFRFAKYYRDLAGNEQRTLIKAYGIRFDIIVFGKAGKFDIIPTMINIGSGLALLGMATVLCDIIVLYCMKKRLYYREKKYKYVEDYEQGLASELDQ


Columns and labels:
human P2X4 [1] = target: T1, human P2X4; experiment: cell-based or functional assay
human P2X4 [2] = target: T1, human P2X4; experiment: cell-based or functional assay; remark: listed apart in the source

IC50 (nM), inhibition of human P2X4 currents in electrophysiology (human P2X4 [1])	IC50, inhibition of human P2X4 currents in electrophysiology (human P2X4 [2])	Binder
19.6 nM	–	Antibody 1 (antibody, V domains shown) VH: not shown VL: SYVLTQPPSVSVSPGQTATITCSGDTLPQRYAYWYQQKPGQAPILLIYKDSERPSGIPDRFSGSSSGTTVALTISGVQAEDEADYYCQSTDTSGVVFGGGTKVTVL
3.9 nM	3.8 nM	Antibody 4 (antibody, V domains shown) VH: not shown VL: QSVLTQPPSVSLSPGQTARITCSGDVLSKQFGYWYQQKPGQAPVVVIYNDSERPSGIPERFSGSSSGTTVTLTITGVQAEDEADYYCQSADSSGTVLFGGGTKLTVL
50 nM	–	Antibody 3 (antibody, V domains shown) VH: not shown VL: SSELTQDPAASVALGQTVTITCQGDSLRSYYASWYQQKPGQAPVLVFYGKNIRPSGIPDRFSGSDSRDTASLTITGAQADDEADYYCNSRDTSGNVVFGGGTKVTVL
